Molecular target: SARS-CoV-2 HexaPro S (SARS-CoV-2)
Experiment: cryo-EM structure

**Q.** With “SARS-CoV-2 HexaPro S (domain or fragment)” as the substance, how does the stoichiometry N read?
**A.** 3
